Reference: article PMC9555771 (Science Advances, 2022)

Key:
[1] = biological target: MsbA (WT), overexpressed in E. coli membranes and cells (Escherichia coli K-12, UniProt P60752); assay: DEER
[2] = biological target: T1, MsbA (WT), purified, His tag cleaved (Escherichia coli K-12); assay: cryo-EM structure
T1 chain: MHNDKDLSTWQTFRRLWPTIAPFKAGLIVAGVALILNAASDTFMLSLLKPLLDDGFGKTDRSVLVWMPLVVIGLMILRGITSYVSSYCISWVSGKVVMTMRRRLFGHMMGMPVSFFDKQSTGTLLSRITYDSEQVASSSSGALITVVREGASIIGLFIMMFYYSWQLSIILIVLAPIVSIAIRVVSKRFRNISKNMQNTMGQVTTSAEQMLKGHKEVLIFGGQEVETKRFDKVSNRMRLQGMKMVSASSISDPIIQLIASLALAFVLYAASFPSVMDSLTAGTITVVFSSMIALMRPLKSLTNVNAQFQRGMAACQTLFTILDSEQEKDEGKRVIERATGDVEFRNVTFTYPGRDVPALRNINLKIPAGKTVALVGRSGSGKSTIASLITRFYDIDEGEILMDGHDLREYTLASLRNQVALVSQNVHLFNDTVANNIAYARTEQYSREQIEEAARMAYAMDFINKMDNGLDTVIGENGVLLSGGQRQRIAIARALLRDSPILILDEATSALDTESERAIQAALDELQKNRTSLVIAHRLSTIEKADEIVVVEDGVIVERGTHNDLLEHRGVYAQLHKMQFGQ

[3] = biological target: Avi-tagged full-length MsbA, biotinylated, detergent-solubilized (Escherichia coli (K-12 sequence), UniProt P60752, biotin on the Avi-tag (enzymatic, BirA)); assay: grating-coupled interferometry

Measured: binding result

B1: Nb_MsbA#1_A60C labeled with Gd-DOTA (VHH)
VHH: QMQLVESGGGLVQAGGSLRLSCAVSGSIFSIITLAWYRQAPGKPRENVATITRGSRTSYCDSVKGRFTISKDNAKSTVYLQMNKLKPEDTADYYCNAEGPAGYWGQGTPVTVS
binds: all assays above

B2: Nb_MsbA#1_T68C labeled with Gd-DOTA (VHH)
VHH: QMQLVESGGGLVQAGGSLRLSCAVSGSIFSIITLAWYRQAPGKPRENVATITRGSRTSYADSVKGRFCISKDNAKSTVYLQMNKLKPEDTADYYCNAEGPAGYWGQGTPVTVS
binds: all assays above
